Assay results: the domain aggregation screens of Martell et al. (2025)

Assay: soluble fraction after stress (log2 fold change); higher = more stays soluble; pooled small domains, quantitative proteomics
Settings: stress: 75 degC
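Also: 20 min heating vs room temperature control held 20 min.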

Sequence | soluble fraction (log2)
HMTTLEGIEKYLGSGMIRGIGPAYAGRLTKVFGEAVFDVIEQSPERLREVEGIGPKRVSRIVSGWAEQ | -0.31
HMRLDPENFYIRAVTYYRNGDWQRALSQLDEAIKLGTAIEYPALQARIYLEQGMRDEFIAASEK | -1.86
HMIGILSDREAEILALLDEGLTNKAIGRRLNLAEPTVKFHLKNLYAKLGVGRRQLAVNVAKGSGLLNSD | -1.4
HMAGYDTYMVDRDAELLPWLLETLQRESRSKVKATLQGNGIKVNGKRVTQFNYPLKAGMKVSVSKSK | 0.0362
HMLLFNVADIVKRAKRVLNFKTDAELAAYLGVSRPTLSNWIARNGIDFPLLLEKLKEIDYNWLLVGKGKPE | -2.74
HMNLMQIHVARPPNQLGVFSQEEVAAGLQSGRFLPTDQAWRDGMSAWTPLSQWAEFSSVVAAV | -0.217
HMELKFIGEAVNNPKRPLIAILGGAKVSDKIGVIENLLTKADKILIGGAMMFTFLKAEGKNIGTSLVED | 0.0754
HMTNVDELIGKEAVVVKEIRPYTTGEVKLDGKVWRAMSESKQVYKVDEIVTVLRIEGVTMII | -2.46
HMPENESPEEKHARFRRFAEGLMARLDENESVRDILPELKVWLDDRELDRDDQRLARNLMLTAGKRE | 0.0151
HMSIMNEQIREILNQQVTKTSKIQQLLLLGLTRRQVADLVTNGNYGFVQNVYRNMLDAGIFTP | -1.13
HMEVHLMPGTVLLREYESNEYRVTVTPEGFYDLNGKVFKSLSAVARHITGVNWSGPRFFGVEP | -2.81
HMGTGQTNEKLAVLTNIQKTQEQILLTLGAKNPLVNLKQYRETLAKILSLSGYKNSNEFFLDPM | -0.184
HMGTSMDPPVIIVSDGKLIQKGLEVSGLKKQWLYDLIDRKHMKISDIFLLTADKTGKYNLIKRS | -0.0253
HMAIQGVRLYERTLETGDPWLDRPLSTLSTGTRLIILVRRGGDVLIPKGDTVLLAGDTLVINDS | -3.85
HMENYYMPVVAGQSEQDAKSMLNAMKLSLSIQVQEQESDSVAKGLAIGTSPAAGSQIRKGSSVILYISKGA | -0.844
HMIPKIIDITDLNEEVREVIEEYMKRKRVEKYHIYQDSKGQIFIISGSAIIRYDSKLNNLYYL | -2.45

Sequence | soluble fraction (log2)
HMEGNAFASTGDPEADILDITAVHPMRRDAVEELLARSGAEWSLVEGMLRDGKITMAPWEGEEFFIRS | 0.105
HMFDSYDIYDEAGNTVNTVKGKLSWGHLLEIYDRFDNHIGTVQERVLTFLPKFLMYINGQEIGEIR | -0.164
HMTKVIEFLVSDEEHGVRADKAFVSHNQKLSRSYFKKLILNGNLYINNKVNLDPSYKLIKGSTVRIILPE | -2.58
HMTQMSVLFSELEAKDAATIADKLRERNIPYELSNNGSTILIPQEVLHDTRLSLASEGLPES | 0.0765
HMETALYVEDLDRAVRFYESVMGLNTMSRGVRLVALDAGEGTVLLLFLRGATTSGASFEGGWIPPH | 0.05
HMLLAPLRLGAAPDIKAQAPLATILARHNGEMEAKDLWQRFGGEIDAFYLQLKTEVAHGWIVEPEPA | -3.01
HMGITMFGQNLKKLRTSKNLSQSKLSKILGISSSTIGMYEQGRRFPDQTILTKIADFFDVSTDYLLGR | -0.819
HMNEYHRNISDEEFVRDIKETAIKLKKETLTGVEYSQNGKYHASTIIHRFGSWKKALELAELNTK | -0.225
HMREKMKGKILDYNFQESRGIISADDGNRYSFENSQWKGTQSPKVNQIVDFEIDGQNAKDIYLDK | 0.0796
HMNSNIIKTINDELSIRKGKYGPYIMYKTKKMKRPKFKSIGDNTPDEFLADKGSISEIILWIN | -0.527
HMNEKLNEYLNQVKAYLNTSDNKEDIIKELEAVVLEKAEKKYGQITDESISKILSEFGSPAEVAKEYS | 0.218
HMTVADMQQKANVKRRNSNSHEAILDATVKLLGSSGYIDFSIEKVASQAGVGKQTIYRWWPSRADLVLEVW | -0.506
HMIQKTHPALEIVKEYFSSQAASEFEAERFFNYYTSNGWLIGGKTKMKDWQAAARNWILNTAK | -0.999
HMNSHLEEGRHGLQIGDPGIVRARIESDPEGETDMPVVVIDGRNISWNEFGRMVATYTGFQFKLEM | -0.629
HMAGQWQQDQNGWKYKTDNGDHMKNTWYQDSDSRWYYFGPDGYMKSSTMTPDGYVVGSDGAWIE | -0.662
